Assay results published in PMC13276377, “Structural Mechanism of Receptor-Triggered MyD88 Oligomeric Assembly in Innate Immune Signaling” (Nature Communications, 2026).

Biological target: the molecule itself
Assay: high-speed AFM; 10–200 μM TIR_(MyD88) adsorbed on mica for 10 min; 20 mM HEPES pH 7.0, 50 mM NaCl, 10 mM DTT; room temperature

B1: TIR domain of MyD88 (TIR_(MyD88); residues 153–296) (domain or fragment, human, UniProt Q99836-1 153-296, looked up)
chain: PLGHMPERFDAFICYCPSDIQFVQEMIRQLEQTNYRLKLCVSDRDVLPGTCVWSIASELIEKRCRRMVVVVSDDYLQSKECDFQTKFALSLSPGAHQKRLIPIKYKAMKKEFPSILRFITVCDYTNPCTKSWFWTRLAKALSLP
notes: human MyD88, TIR domain, amino acids 153–296; Self-assembles into antiparallel double-stranded filaments, double-layered rings and cylindrical fibers; also called WT TIR_(MyD88); Toll/interleukin-1 receptor domain of MyD88
stoichiometry N: 58
